Drawing on patent US20230203155A1 (ALMAC DISCOVERY, published 2023), this text covers Kd, koff and kon for 21 molecules.

The chains are these.
B1: ROR1 2A2 mAb (BioLegend) (antibody, V domains shown)
VH: QVQLQQSGAELVRPGASVTLSCKASGYTFSDYEMHWVIQTPVHGLEWIGAIDPETGGTAYNQKFKGKAILTADKSSSTAYMELRSLTSEDSAVYYCTGYYDYDSFTYWGQGTLVTVSA
VL: DIVMTQSQKIMSTTVGDRVSITCKASQNVDAAVAWYQQKPGQSPKLLIYSASNRYTGVPDRFTGSGSGTDFTLTISNMQSEDLADYFCQQYDIYPYTFGGGTKLEIK
B2: UC961 based mAb (antibody, human IgG1, kappa, V domains shown)
VH: QVQLQESGPGLVKPSQTLSLTCTVSGYAFTAYNIHWVRQAPGQGLEWMGSFDPYDGGSSYNQKFKDRLTISKDTSKNQVVLTMTNMDPVDTATYYCARGWYYFDYWGHGTLVTVSS
VL: DIVMTQTPLSLPVTPGEPASISCRASKSISKYLAWYQQKPGQAPRLLIYSGSTLQSGIPPRFSGSGTGTDFTLTINNIESEDAAYYFCQQHDESPYTFGEGTKVEIKR
notes: also called UC961-like; mAb based on UC-961
B3: BA11 (humanised HSA-binding VNAR) (VNAR)
VNAR: TRVDQSPSSLSASVGDRVTITCVLTDTSYPLYSTYWYRKNPGSSNKEQISISGRYSESVNKGTKSFTLTISSLQPEDSATYYCRAMSTNIWTGDGAGTKVEIK
notes: VNAR
B4: BA11-C terminal cysteine-maleimide-peg-fluorescein (VNAR)
VNAR: B3 VNAR
modifications: C-terminal cysteine conjugated to maleimide-peg-fluorescein
notes: also called BA11-cys-mal-Fl
B5: BA11 C-terminal thiol derivative (VNAR)
VNAR: B3 VNAR
modifications: C-terminal thiol (intein cleavage with cysteamine)
notes: also called BA11-SH
B6: BA11-C term thiol-maleimide-peg-fluorescein (VNAR)
VNAR: B3 VNAR
modifications: C-terminal thiol conjugated to maleimide-peg-fluorescein
notes: also called BA11-S-mal-Fl
B7: BA11-oxime-fluorescein (VNAR)
VNAR: B3 VNAR
modifications: C-terminal oxime-linked benzaldehyde-peg-fluorescein
B8: BA11 C-terminal cysteine derivative (VNAR)
VNAR: B3 VNAR
modifications: additional C-terminal cysteine (intein cleavage with cysteine)
notes: also called BA11-cys
B9: BA11-aminoxy (VNAR)
VNAR: B3 VNAR
modifications: C-terminal aminoxy (intein cleavage with dioxyamine)
B10: P3A1 G1 dimer (VNAR)
chain: TRVDQSPSSLSASVGDRVTITCVLTDTSYGLYSTYWYRKNPGSSNKEQISISGRYSESVNKGTKSFTLTISSLQPEDSATYYCRAREARHPWLRQWYDGAGTKVEIKGGGGSGGGGSGGGGSGGGGSGGGGSTRVDQSPSSLSASVGDRVTITCVLTDTSYGLYSTYWYRKNPGSSNKEQISISGRYSESVNKGTKSFTLTISSLQPEDSATYYCRAREARHPWLRQWYDGAGTKVEIKQASGAHHHHHHGAEFEQKLISEEDL
notes: humanised VNAR dimer
B11: P3A1 V1 dimer (VNAR)
chain: TRVDQSPSSLSASVGDRVTITCVLTDTSYGLYSTSWFRKNPGTTDWERMSIGGRYVESVNKGAKSFTLTISSLQPEDFATYYCKAREARHPWLRQWYDGAGTKVEIKGGGGSGGGGSGGGGSGGGGSGGGGSTRVDQSPSSLSASVGDRVTITCVLTDTSYGLYSTSWFRKNPGTTDWERMSIGGRYVESVNKGAKSFTLTISSLQPEDFATYYCKAREARHPWLRQWYDGAGTKVEIKQASGAHHHHHHGAEFEQKLISEEDL
B12: P3A1 G2 dimer (VNAR)
chain: B11 chain with S35Y, F37Y, V56S, F78S, K84R, S167Y, F169Y, V188S, F210S, K216R
notes: humanised VNAR dimer
B13: D3 humanised EL V2 with His6myc tag (VNAR)
VNAR: ASVNQSPSSLSASVGDRVTITCVLTDTSYGLYSTSWFRKNPGTTDWERMSIGGRYVESVNKRAKSFTLTISSLQPEDFATYYCKAQSGMAISTGSGHGYNWYDGAGTKVEIKQ
notes: VNAR; also called D3 EL V2
B14: D3 humanised EL V4 with His6myc tag (VNAR)
VNAR: B13 VNAR with F37Y, R38Q, K39Q, N40K
notes: VNAR; also called D3 EL V4
B15: D3 humanised ADV2 with His6myc tag (VNAR)
VNAR: B13 VNAR with A1T, S2R, N4D, V56S, R62G, F78S
notes: VNAR; also called D3 AD V2
B16: D3 ADV1 dimer (VNAR)
chain: ASVNQSPSSLSASVGDRVTITCVLTDTSYGLYSTSWFRKNPGTTDWERMSIGGRYSESVNKGAKSFTLTISSLQPEDSATYYCKAQSGMAISTGSGHGYNWYDGAGTKVEIKGGGGSGGGGSGGGGSGGGGSGGGGSASVNQSPSSLSASVGDRVTITCVLTDTSYGLYSTSWFRKNPGTTDWERMSIGGRYSESVNKGAKSFTLTISSLQPEDSATYYCKAQSGMAISTGSGHGYNWYDGAGTKVEIKQASGAHHHHHHGAEFEQKLISEEDL
notes: Listing names it 'D3V1 dimer'; also called D3V1 dimer
B17: D3 ADV2 dimer (VNAR)
chain: B16 chain with A1T, S2R, N4D, A138T, S139R, N141D
notes: Listing names it 'D3V2 dimer'; also called D3V2 dimer
B18: B1 G2 (humanised/grafted B1) with His6myc tag (VNAR)
VNAR: TRVDQSPSSLSASVGDRVTITCVLTGANYGLASTYWYRKNPGSSNQERISISGRYSESVNKRTMSFTLTISSLQPEDSATYYCRAYPWGAGAPWLVQWYDGAGTKVEIKQ
notes: VNAR
B19: B1 G1 (humanised/grafted B1) with His6myc tag (VNAR)
VNAR: B18 VNAR with Q46K, R48Q, R62G, M64K
notes: VNAR
B20: B1 humanised V7 with His6myc tag (VNAR)
VNAR: B18 VNAR with T1A, R2S, L10A, V18L, L24V, S33A, R84K, V106L, I108V
notes: VNAR; also called B1V7
B21: B1 humanised V5 with His6myc tag (VNAR)
VNAR: B18 VNAR with T1A, R2S, L24V, S33A, R84K
notes: VNAR; also called B1V5

Numbering of substitutions follows the chain as printed.

T6 sequence (chain, as listed by the source limits assumed): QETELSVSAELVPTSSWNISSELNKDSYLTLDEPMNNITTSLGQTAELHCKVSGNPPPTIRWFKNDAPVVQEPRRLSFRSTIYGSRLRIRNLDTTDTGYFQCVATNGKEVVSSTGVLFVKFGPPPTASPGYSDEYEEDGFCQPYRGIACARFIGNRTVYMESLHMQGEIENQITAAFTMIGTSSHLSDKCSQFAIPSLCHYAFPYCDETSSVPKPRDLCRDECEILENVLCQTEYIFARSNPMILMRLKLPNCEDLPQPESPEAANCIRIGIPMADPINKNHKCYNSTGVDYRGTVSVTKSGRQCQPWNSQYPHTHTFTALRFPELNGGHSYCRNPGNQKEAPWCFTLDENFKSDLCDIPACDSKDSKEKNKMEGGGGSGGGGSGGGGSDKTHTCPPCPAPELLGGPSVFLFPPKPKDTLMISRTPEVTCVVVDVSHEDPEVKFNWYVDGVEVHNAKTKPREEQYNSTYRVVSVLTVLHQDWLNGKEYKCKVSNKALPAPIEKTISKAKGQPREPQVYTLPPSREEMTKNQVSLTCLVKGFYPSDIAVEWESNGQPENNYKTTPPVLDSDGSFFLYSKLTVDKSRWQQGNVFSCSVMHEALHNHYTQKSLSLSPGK
T3 sequence (P02770 25-608 limits assumed): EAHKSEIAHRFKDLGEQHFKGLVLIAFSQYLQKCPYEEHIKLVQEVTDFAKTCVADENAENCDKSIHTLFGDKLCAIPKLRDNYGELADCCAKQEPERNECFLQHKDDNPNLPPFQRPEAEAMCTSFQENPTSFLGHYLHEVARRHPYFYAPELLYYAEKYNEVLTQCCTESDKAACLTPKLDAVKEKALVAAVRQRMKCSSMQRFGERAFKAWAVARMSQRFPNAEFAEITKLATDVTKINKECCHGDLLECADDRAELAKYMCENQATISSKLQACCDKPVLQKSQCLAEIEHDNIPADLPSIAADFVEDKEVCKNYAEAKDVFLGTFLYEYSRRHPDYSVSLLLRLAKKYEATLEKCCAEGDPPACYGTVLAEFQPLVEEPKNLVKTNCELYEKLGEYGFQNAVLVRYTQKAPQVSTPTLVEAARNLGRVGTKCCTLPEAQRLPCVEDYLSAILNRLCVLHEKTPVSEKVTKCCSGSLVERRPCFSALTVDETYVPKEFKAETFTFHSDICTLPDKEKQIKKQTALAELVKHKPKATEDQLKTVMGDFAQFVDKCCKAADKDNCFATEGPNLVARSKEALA

In one assay the target is T1, recombinant human ROR1 (hROR1), construct not stated (human, UniProt Q01973 30-403, limits assumed). Kind of assay: SPR, hROR1 on chip. On the technique in general: SPR reads the build-up and loss of mass on a sensor chip optically.
T1 sequence (Q01973 30-403 limits assumed): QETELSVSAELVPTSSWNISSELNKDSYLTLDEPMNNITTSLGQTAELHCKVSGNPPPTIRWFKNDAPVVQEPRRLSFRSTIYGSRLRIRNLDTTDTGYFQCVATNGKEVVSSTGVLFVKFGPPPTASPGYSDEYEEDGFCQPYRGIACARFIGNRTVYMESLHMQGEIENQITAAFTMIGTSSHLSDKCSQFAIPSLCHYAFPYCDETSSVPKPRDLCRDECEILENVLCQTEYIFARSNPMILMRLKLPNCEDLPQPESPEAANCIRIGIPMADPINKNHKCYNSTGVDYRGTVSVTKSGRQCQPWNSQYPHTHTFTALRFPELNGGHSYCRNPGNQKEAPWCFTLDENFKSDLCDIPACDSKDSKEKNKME
One may read the Kd as the free concentration of one partner at which half of the binding sites on the other are occupied at equilibrium, for simple one-to-one binding. As usually defined, the koff is the first-order rate constant of dissociation. Broadly, the kon is a measure of how fast the partners come together. Regarding B1, the Kd was determined as 0.21 nM, the koff was found to be 0.000211 s⁻¹ and the kon came out at 979000 M⁻¹ s⁻¹.

The target of the next assay is T1, recombinant human ROR1 (hROR1), …. Nature of the assay: SPR, hROR1 on chip. The source holds these as a separate data set.
Experimental: (§1) Competition of binding studies were completed using SPR. […] FC2 was used as the reference channel. […] Binding kinetics were determined using QDat software.
Regarding B1, the Kd was 0.233 nM, the koff amounted to 0.000342 s⁻¹ and the kon was 1.47e+06 M⁻¹ s⁻¹.
For the molecule B2, the Kd was found to be 0.078 nM, the koff is 0.000451 s⁻¹ and the kon was 5.77e+06 M⁻¹ s⁻¹.

Another assay deals with T2, human serum albumin (human, UniProt P02768 25-609).
T2 construct: also called HSA
Kind of assay: SPR, albumin on chip, pH 5.5.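 Further: albumins amine-coupled onto carboxyl SPR chips, with each analyte also run over a hen egg lysozyme surface as negative control, Kd derived from binding kinetics.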
Experimental: (§2) Binding kinetics were determined using SPR. The serum albumins or negative control protein were immobilised to COOH₂ chips by amine coupling using optimised buffer conditions as follows: —Human serum albumin (HSA) and mouse serum albumin (MSA) were immobilised in sodium acetate pH5 buffer. Rat serum albumin (RSA) and cynomolgous serum albumin (CSA) in sodium acetate pH 4.5 buffer and the negative control hen egg lysozyme (HEL) protein was immobilised in sodium acetate pH 5.5 buffer.
(§3) For each analyte test experiment, binding to the chosen serum albumin protein was assayed alongside the negative control protein (HEL).
As for B3, the Kd was 0.91 nM.
For the molecule B4, the Kd came out at 3.16 nM.
In turn, B5 showed a Kd of 2.23 nM.
Take B6: the Kd was 1.91 nM.
As to B7, binding was put at a Kd of 1.3 nM.
B8 had a Kd of 1.96 nM.

The next assay concerns the target T3, rat serum albumin (rat, UniProt P02770 25-608).
T3 construct: also called RSA
Nature of the assay: SPR, albumin on chip, pH 5.5.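 Further: albumins amine-coupled onto carboxyl SPR chips, with each analyte also run over a hen egg lysozyme surface as negative control, Kd derived from binding kinetics.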
Experimental: as §2, §3
As to B3, the Kd worked out at 4.39 nM.
Turning to B4, binding was characterised by a dissociation constant (Kd) of 7.24 nM.
As for B5, the Kd came to 12.1 nM.
Molecule B6 displayed a Kd of 7.92 nM.
B7 came in with a Kd of 5.93 nM.
Turning to B8, binding was put at a Kd of 3.21 nM.

In another assay the target is T4, mouse serum albumin (mouse, UniProt P07724 25-608).
T4 construct: also called MSA
T4 sequence (P07724 25-608 limits assumed): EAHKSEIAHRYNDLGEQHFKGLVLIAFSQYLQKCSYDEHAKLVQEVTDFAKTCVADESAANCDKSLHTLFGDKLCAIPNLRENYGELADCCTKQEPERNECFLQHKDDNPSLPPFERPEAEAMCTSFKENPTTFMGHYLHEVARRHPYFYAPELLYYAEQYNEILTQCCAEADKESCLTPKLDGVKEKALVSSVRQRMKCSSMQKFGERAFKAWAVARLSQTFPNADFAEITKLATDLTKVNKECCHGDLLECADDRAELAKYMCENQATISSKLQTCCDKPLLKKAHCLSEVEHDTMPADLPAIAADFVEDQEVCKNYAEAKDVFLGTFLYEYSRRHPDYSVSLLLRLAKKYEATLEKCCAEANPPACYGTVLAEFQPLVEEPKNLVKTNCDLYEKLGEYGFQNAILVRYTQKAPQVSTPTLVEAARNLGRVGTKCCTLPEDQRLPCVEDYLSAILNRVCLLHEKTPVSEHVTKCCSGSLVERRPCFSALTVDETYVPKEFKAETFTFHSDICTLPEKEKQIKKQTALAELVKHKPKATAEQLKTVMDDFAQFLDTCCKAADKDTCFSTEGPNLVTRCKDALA
Nature of the assay: SPR, albumin on chip, pH 5.5.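 Further: albumins amine-coupled onto carboxyl SPR chips, with each analyte also run over a hen egg lysozyme surface as negative control, Kd derived from binding kinetics.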
Experimental: as §2, §3
On to B3, for which the Kd amounted to 4.8 nM.
As for B4, binding was put at a Kd of 13.6 nM.
Take B9: the Kd was 21.2 nM.
B5 displayed a Kd of 11.1 nM.
Regarding B6, the equilibrium dissociation constant (Kd) is 10.6 nM.
The molecule B7 showed a Kd of 7.44 nM.
Still for that read-out and setting: for B8 the value was 3.77 nM.

The target of another assay is T5, cynomolgous serum albumin (cynomolgous, UniProt A2V9Z4 25-608).
T5 construct: also called CSA; Cyano
T5 sequence (A2V9Z4 25-608 limits assumed): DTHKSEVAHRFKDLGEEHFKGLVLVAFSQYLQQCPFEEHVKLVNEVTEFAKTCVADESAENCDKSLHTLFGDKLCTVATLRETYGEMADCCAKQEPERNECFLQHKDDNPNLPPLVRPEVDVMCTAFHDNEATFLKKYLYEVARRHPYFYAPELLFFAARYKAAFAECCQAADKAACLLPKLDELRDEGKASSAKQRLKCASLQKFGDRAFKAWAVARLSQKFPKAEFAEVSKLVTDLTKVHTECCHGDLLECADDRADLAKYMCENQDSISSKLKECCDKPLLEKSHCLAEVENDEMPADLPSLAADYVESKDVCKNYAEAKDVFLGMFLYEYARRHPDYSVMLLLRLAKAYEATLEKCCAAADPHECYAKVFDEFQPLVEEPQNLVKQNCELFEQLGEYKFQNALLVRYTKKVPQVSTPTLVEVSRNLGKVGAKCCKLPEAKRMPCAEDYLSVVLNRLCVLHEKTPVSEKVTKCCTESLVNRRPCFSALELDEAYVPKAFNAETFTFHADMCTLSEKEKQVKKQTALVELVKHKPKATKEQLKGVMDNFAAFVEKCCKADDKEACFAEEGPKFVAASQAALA
Nature of the assay: SPR, albumin on chip, pH 5.5.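 Further: albumins amine-coupled onto carboxyl SPR chips, with each analyte also run over a hen egg lysozyme surface as negative control, Kd derived from binding kinetics.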
Experimental: as §2, §3
Molecule B3 gave a Kd of 1.11 nM.
Regarding B4, binding was characterised by a dissociation constant (Kd) of 8.21 nM.
Consider B5, for which the Kd was determined as 6.74 nM.
The molecule B6 yielded a Kd of 7.01 nM.
Same read-out and setting: for B7 the value was 5.54 nM.

Another assay has as its target T2, human serum albumin. Kind of assay: SPR, albumin on chip, pH 7.4.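 Further: Human, mouse, rat and cynomolgus serum albumins amine-coupled to carboxyl sensor chips, with a hen egg lysozyme surface measured in parallel as negative control.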
Experimental: as §2, §3
Take B3: the Kd is 0.636 nM.
As for B4, binding was characterised by a dissociation constant (Kd) of 1.1 nM.
B9 gave a Kd of 1.12 nM.
On to B5, for which the Kd was 0.774 nM.
Molecule B6 registered a Kd of 1.42 nM.
Still for that read-out and setting: for B7 the value was 0.677 nM.
Same read-out and setting: for B8 the value was 0.756 nM.

For another assay, the target named is T3, rat serum albumin. Kind of assay: SPR, albumin on chip, pH 7.4.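 Further: Human, mouse, rat and cynomolgus serum albumins amine-coupled to carboxyl sensor chips, with a hen egg lysozyme surface measured in parallel as negative control.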
Experimental: as §2, §3
On to B3, for which the affinity, expressed as Kd, was 2.97 nM.
The same measure, in the same setting: for B4 the value was 4.78 nM.
Molecule B9 showed a Kd of 10.8 nM.
Consider B5, for which the affinity, expressed as Kd, was 7.67 nM.
Regarding B6, binding was put at a Kd of 5.3 nM.
In turn, B7 showed a Kd of 5.72 nM.
On the same count and under the same terms, for B8 the value was 3.37 nM.

A further assay deals with T4, mouse serum albumin. Kind of assay: SPR, albumin on chip, pH 7.4.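 Further: Human, mouse, rat and cynomolgus serum albumins amine-coupled to carboxyl sensor chips, with a hen egg lysozyme surface measured in parallel as negative control.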
Experimental: as §2, §3
For the molecule B3, the Kd came out at 1.9 nM.
In turn, B4 gave a Kd of 5.06 nM.
Still for that read-out and setting: for B9 the value was 8.77 nM.
Take B5: the Kd amounted to 4.76 nM.
Regarding B6, the affinity, expressed as Kd, was 5 nM.
B7 returned a Kd of 4.24 nM.

A further assay has as its target T5, cynomolgous serum albumin. Nature of the assay: SPR, albumin on chip, pH 7.4.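 Further: Human, mouse, rat and cynomolgus serum albumins amine-coupled to carboxyl sensor chips, with a hen egg lysozyme surface measured in parallel as negative control.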
Experimental: as §2, §3
As for B3, the Kd came to 3.36 nM.
For the molecule B4, binding was put at a Kd of 3.68 nM.
For B9, the affinity, expressed as Kd, was 7.97 nM.
Take B5: binding was characterised by a dissociation constant (Kd) of 3.41 nM.
Regarding B6, binding was characterised by a dissociation constant (Kd) of 2.3 nM.
B7 gave a Kd of 1.75 nM.
The molecule B8 showed a Kd of 2.1 nM.

A further assay addresses T6, human ROR1-hFc fusion protein (extracellular domain) (human).
T6 construct: Whole entry 'human ROR1-Fc (CHO)'; also called hROR1; huROR1-Fc
Nature of the assay: SPR, human ROR1 ECD-Fc on chip.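 Further: SPR binding kinetics of VNAR and VNAR-Fc molecules run at a range of concentrations over immobilised target, rate and affinity constants fitted with QDat software.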
Experimental: Binding kinetics were determined using a Pioneer Surface Plasmon Resonance (SPR) instrument (SensiQ/Pall ForteBio). […] VNARs and VNAR-Fc molecules were tested at various concentrations and the Ka (M⁻¹s⁻¹), Kd (s⁻¹) and KD (nM) values were determined using QDat software (SensiQ/Pall ForteBio).
Thermal stability assays used Applied Biosystems StepOne Real Time PCR system with the Protein Thermal Shift™ dye kit (Thermo). The assay mix was set up so that the protein was at a final concentration of 20 OA in 20 μL. 5 μL of Thermal Shift™ buffer was added alongside 2.5 uL 8× Thermal Shift™ Dye. Assays were run using the StepOne software and data analysed using Protein Thermal Shift™ software. All data are from first derivative analysis.
As for B10, the Kd worked out at 0.43 nM, the koff is 0.00147 s⁻¹ and the kon came to 4.3e+06 M⁻¹ s⁻¹.
Molecule B11 came in with a Kd of 0.18 nM, a koff of 0.000846 s⁻¹ and a kon of 4.78e+06 M⁻¹ s⁻¹.
For the molecule B12, the Kd came out at 0.77 nM, the koff was 0.00119 s⁻¹ and the kon was 1.88e+06 M⁻¹ s⁻¹.
B13 had a Kd of 18.9 nM, a koff of roughly 0.0163 s⁻¹ and a kon of 1.85e+06 M⁻¹ s⁻¹.
Molecule B14 had a Kd of 58.5 nM, a koff of roughly 0.0545 s⁻¹ and a kon of 1.38e+06 M⁻¹ s⁻¹.
Molecule B15 showed a Kd of 51.6 nM, a koff of 0.00236 s⁻¹ and a kon of 45800 M⁻¹ s⁻¹.
Regarding B16, the Kd is 8.92 nM, the koff turned out to be 0.00567 s⁻¹ and the kon came to 636000 M⁻¹ s⁻¹.
Turning to B17, the Kd turned out to be 26.2 nM, the koff came out at 0.016 s⁻¹ and the kon worked out at 609000 M⁻¹ s⁻¹.
Molecule B18 returned a Kd of 45.9 nM, a koff of 0.0079 s⁻¹ and a kon of 185000 M⁻¹ s⁻¹.
In the case of B19, the Kd was 82.8 nM, the koff was 0.0162 s⁻¹ and the kon was found to be 220000 M⁻¹ s⁻¹.
Consider B20, for which the Kd stood at 0.77 nM, the koff was determined as 5.54e-05 s⁻¹ and the kon is 77400 M⁻¹ s⁻¹.
With B21, the Kd came out at 0.74 nM, the koff was determined as 3.85e-05 s⁻¹ and the association rate constant (kon) was determined as 52000 M⁻¹ s⁻¹.

The target in another assay is T1, recombinant human ROR1 (hROR1), …. Kind of assay: SPR, hROR1 on chip with competitor B1 pre-captured.
Experimental: as §1
Turning to B1, the Kd is 0.101 nM, the koff turned out to be 8.47e-05 s⁻¹ and the on-rate constant (kon) is 835000 M⁻¹ s⁻¹.

The target is the same in a further assay. Nature of the assay: SPR, hROR1 on chip with competitor P3A1 dimer pre-captured.
Experimental: as §1
B1: the Kd was found to be 0.231 nM, the koff came to 0.000322 s⁻¹ and the kon came out at 1.39e+06 M⁻¹ s⁻¹.
As for B2, the Kd stood at 0.081 nM, the koff was determined as 0.000444 s⁻¹ and the kon amounted to 5.48e+06 M⁻¹ s⁻¹.
